Laboratory results from patent US11464871B2, “Methods and systems for polymer precipitation and generation of particles” (priority 2012, dated 2022).

Assay: Physical stability and re-dispersion of chilled-acetone precipitated polymer conjugate particles
Assay type: physicochemical
Procedure: A 600 mL beaker of 300 mL of acetone with magnetic stir bar was pre-chilled to −78° C. in a dry ice/acetone bath. A solution of polymer conjugate HG6 (2 grams), obtained without further preparation from Example 3, was added dropwise over a 4 minute period into the beaker with chilled acetone with stirring and maintained in the dry ice/acetone bath. Individual free flowing polymer particles (resembling chards or flakes) were formed (FIG. 3) and remained in suspension under stirring conditions. After 25 minutes, the chilled acetone was decanted and replaced with fresh pre-chilled acetone (300 mL at −78° C.) and stirred for an additional 30 minutes to afford a suspension of polymer particles in chilled acetone.
From the polymer particles/chilled acetone suspension further steps were conducted. First, a portion of polymer particles (still in acetone) was removed from the suspension and allowed to dry at room temperature. […] A second portion of polymer particles (still in acetone) was removed from the suspension and frozen in liquid nitrogen (N2) and lyophilized for 24 hours.

In the case of Poly(CDDCys-PA-PEG)-Gly-CPT [HG6], the “Re-dispersion of lyophilized polymer particles in water” value (frozen in liquid N2, lyophilized 24 hours, water, even after 24 hours and sonication) is reported as “did not re-disperse in water”, the “Physical stability of lyophilized polymer particles in ambient environment” value (lyophilized particles exposed to the ambient environment) is reported as “melted into yellow oil” and the “Re-dispersion of lyophilized polymer particles with acetone” value (lyophilized particles, with addition of acetone) is reported as “re-dispersion was successful”. For the same substance, the “Physical stability of precipitated polymer particles allowed to dry” value (portion removed from acetone suspension, dried at room temperature) was “melted into yellow oil” and the “Physical stability of polymer particle suspension in acetone” value (still in acetone, warmed to room temperature for 72 hours) was “remained a stable free flowing suspension”.
